Source: patent publication US20170291939A1 (Novartis, published 2017)
Numbering of substitutions follows the chain as printed. Where two headings read alike, the source gives them in different places.

What was measured:
[1] = biological target: BSA (UniProt P02769); assay: ELISA, BSA wells, control antibody 1 µg/ml (XAB1 set)
[2] = biological target: BSA (UniProt P02769); assay: ELISA, BSA wells, control antibody 5 µg/ml (XAB4 set)
[3] = biological target: T1, recombinant huIL-17A (SEQ ID NO: 76) (human, UniProt Q16552 24-155, limits assumed); assay: cell-based or functional assay
T1 sequence: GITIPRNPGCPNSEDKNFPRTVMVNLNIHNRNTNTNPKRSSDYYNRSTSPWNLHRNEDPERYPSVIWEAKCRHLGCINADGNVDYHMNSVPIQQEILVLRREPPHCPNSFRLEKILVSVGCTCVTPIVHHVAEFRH

[4] = biological target: T2, recombinant huIL-17A/F heterodimer (human, UniProt Q16552 24-155; Q96PD4 31-163, limits assumed); assay: cell-based or functional assay
T2 sequence (looked up) 1: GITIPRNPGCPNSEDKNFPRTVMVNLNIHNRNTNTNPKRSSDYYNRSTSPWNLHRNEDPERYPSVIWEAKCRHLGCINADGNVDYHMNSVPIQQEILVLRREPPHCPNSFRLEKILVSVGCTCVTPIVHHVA
T2 sequence (looked up) 2: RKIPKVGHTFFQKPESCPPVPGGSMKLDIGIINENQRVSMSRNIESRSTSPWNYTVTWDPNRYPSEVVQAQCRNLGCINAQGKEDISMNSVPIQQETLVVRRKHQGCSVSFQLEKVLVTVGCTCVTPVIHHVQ

[5] = biological target: T3, recombinant huIL-17F (human, UniProt Q96PD4 31-163); assay: cell-based or functional assay
T3 sequence: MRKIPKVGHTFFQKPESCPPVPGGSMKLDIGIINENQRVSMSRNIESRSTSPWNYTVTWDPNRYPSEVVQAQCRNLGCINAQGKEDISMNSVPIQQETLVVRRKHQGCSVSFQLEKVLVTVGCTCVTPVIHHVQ

[6] = biological target: T4, recombinant mIL-17A (mouse, UniProt Q62386 26-158); assay: cell-based or functional assay
T4 sequence: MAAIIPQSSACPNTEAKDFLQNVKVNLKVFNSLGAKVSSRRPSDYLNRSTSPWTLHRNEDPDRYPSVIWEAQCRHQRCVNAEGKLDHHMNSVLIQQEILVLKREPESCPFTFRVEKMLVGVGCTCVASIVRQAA

[7] = biological target: recombinant mIL-17A/F (R&D Systems Cat#5390-IL) (mouse) (UniProt Q62386); assay: cell-based or functional assay
[8] = biological target: T5, rat IL-17A (rat, UniProt Q61453 18-150); assay: cell-based or functional assay
T5 sequence: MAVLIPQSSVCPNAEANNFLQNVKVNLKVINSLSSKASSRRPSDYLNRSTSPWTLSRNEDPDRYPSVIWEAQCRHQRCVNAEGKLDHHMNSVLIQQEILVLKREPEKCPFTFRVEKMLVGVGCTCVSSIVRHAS

[9] = biological target: T6, recombinant mIL-17F (SEQ ID NO: 84) (mouse, UniProt Q7TNI7 29-161); assay: cell-based or functional assay
T6 sequence: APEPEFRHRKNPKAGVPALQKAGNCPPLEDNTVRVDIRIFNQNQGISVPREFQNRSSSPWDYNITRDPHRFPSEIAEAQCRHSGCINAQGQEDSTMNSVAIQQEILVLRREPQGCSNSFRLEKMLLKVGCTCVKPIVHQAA

[10] = biological target: T7, human IL-17A biotin (human) (UniProt Q16552); assay: SPR (Biacore), 25° C., biotinylated ligand
T7 sequence (chain, biotinylated, site not given): T1 sequence

[11] = biological target: T8, human IL-17A (construct not specified) (human, UniProt Q16552 24-155, limits assumed); assay: cell-based or functional assay
T8 sequence: T1 sequence

[12] = biological target: T1, recombinant huIL-17A (SEQ ID NO: 76); assay: cell-based or functional assay; remark: listed apart in the source
[13] = biological target: T2, recombinant huIL-17A/F heterodimer; assay: cell-based or functional assay; remark: listed apart in the source
[14] = biological target: T3, recombinant huIL-17F; assay: cell-based or functional assay; remark: listed apart in the source
[15] = biological target: T1, recombinant huIL-17A (SEQ ID NO: 76); assay: cell-based or functional assay; remark: listed apart in the source
[16] = biological target: T2, recombinant huIL-17A/F heterodimer; assay: cell-based or functional assay; remark: listed apart in the source
[17] = biological target: T3, recombinant huIL-17F; assay: cell-based or functional assay; remark: listed apart in the source
[18] = biological target: T1, recombinant huIL-17A (SEQ ID NO: 76); assay: cell-based or functional assay; remark: listed apart in the source
[19] = biological target: T1, recombinant huIL-17A (SEQ ID NO: 76); assay: cell-based or functional assay; remark: listed apart in the source
[20] = biological target: T4, recombinant mIL-17A; assay: cell-based or functional assay; remark: listed apart in the source
[21] = biological target: T9, recombinant mIL-17A/F (R&D Systems Cat#5390-IL) (mouse, UniProt Q62386 26-158; Q7TNI7 29-161, limits assumed); assay: cell-based or functional assay
T9 sequence (looked up) 1: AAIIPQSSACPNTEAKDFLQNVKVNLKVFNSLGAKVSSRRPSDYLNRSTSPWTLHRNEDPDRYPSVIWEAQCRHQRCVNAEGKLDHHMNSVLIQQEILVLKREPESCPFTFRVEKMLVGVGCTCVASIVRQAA
T9 sequence (looked up) 2: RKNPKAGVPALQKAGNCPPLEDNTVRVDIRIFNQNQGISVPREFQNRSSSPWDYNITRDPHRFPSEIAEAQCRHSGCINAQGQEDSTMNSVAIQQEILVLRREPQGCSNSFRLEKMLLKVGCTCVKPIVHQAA

[22] = biological target: T4, recombinant mIL-17A; assay: cell-based or functional assay; remark: listed apart in the source
[23] = biological target: T10, recombinant huIL-20 (Novartis) (human) (UniProt Q9NYY1); assay: ELISA, coated cytokine, antibody 10 µg/ml
T10 sequence (looked up): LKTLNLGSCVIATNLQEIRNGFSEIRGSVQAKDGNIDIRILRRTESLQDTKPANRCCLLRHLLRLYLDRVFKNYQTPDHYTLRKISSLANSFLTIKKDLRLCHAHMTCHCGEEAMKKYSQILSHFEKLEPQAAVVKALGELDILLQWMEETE

Chain of BSA (P02769 25-607 limits assumed): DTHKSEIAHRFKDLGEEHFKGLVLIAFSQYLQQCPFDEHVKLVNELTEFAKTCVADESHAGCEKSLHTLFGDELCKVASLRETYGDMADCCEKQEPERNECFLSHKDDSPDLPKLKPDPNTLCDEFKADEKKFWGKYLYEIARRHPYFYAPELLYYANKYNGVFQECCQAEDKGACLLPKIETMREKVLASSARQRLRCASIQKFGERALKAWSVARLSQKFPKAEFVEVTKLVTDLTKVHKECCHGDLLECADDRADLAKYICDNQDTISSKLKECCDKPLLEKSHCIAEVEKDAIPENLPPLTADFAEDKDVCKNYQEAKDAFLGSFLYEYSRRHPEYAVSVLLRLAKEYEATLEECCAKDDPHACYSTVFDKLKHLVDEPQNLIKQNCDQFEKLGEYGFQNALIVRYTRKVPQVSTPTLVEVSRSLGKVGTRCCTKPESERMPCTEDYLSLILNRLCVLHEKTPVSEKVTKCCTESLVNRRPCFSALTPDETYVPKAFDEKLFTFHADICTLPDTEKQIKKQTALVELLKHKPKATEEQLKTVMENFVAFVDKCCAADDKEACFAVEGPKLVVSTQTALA

Control antibody (BSA wells of Table 23; not identified)
O.D. [1]: 0.149 O.D.
O.D. [2]: 0.01 O.D.

Simulect® (1.1% solution, Batch C0011; 831179) (antibody)
IC50, hu-GRO-alpha secretion by BJ cells; IL-17A (30 pM) + TNF-α (6 pM) [3]: > 3 µM
IC50, hu-GRO-alpha secretion by BJ cells; IL-17A (1 nM) [3]: > 100 nM
IC50, huIL-6 secretion by BJ cells; rhuIL-17A (30 pM) + rhuTNF-α (6 pM) [3]: > 3 µM
IC50, huIL-6 secretion by BJ cells; rhuIL-17A (1 nM) [3]: > 100 nM
IC50, hu-GRO-alpha secretion by BJ cells; IL-17A/F (300 pM) + TNF-α (6 pM) [4]: > 3 µM
IC50, hu-GRO-alpha secretion by BJ cells; IL-17A/F (3 nM) [4]: > 100 nM
IC50, huIL-6 secretion by BJ cells; rhuIL-17A/F (300 pM) + rhuTNF-α (6 pM) [4]: > 3 µM
IC50, huIL-6 secretion by BJ cells; rhuIL-17A/F (3 nM) [4]: > 100 nM
IC50, hu-GRO-alpha secretion by BJ cells; IL-17F (10 nM) + TNF-α (6 pM) [5]: > 3 µM
IC50, hu-GRO-alpha secretion by BJ cells; IL-17F (30 nM) [5]: > 1000 nM
IC50, huIL-6 secretion by BJ cells; rhuIL-17F (10 nM) + rhuTNF-α (6 pM) [5]: > 3 µM
IC50, huIL-6 secretion by BJ cells; rhuIL-17F (30 nM) [5]: > 1000 nM
IC50, mouse KC secretion by CMT-93 cells; mIL-17A (1 nM) [6]: > 3000 nM
IC50, mouse KC secretion by CMT-93 cells; mIL-17A/F (3 nM) [7]: > 3000 nM
IC50, mouse KC secretion by CMT-93 cells; rIL-17A (1 nM) [8]: > 3000 nM
IC50, mouse KC secretion by CMT-93 cells; mIL-17F (30 nM) [9]: > 3 µM

B1: XAB4T (Fab, part only; not given: CH1 and tag, part only)
heavy, part: EVQLVESGGDLVQPGGSLRLSCAASGFTFSSYWMSWVRQAPGKGLEWVANIKQDGSEKYYVDSVKGRFTISRDNAKNSLYLQMNSLRAEDTAVYYCARDRGSLYYWGQGTLVTVSSGSGGG
light: AIQLTQSPSSLSASVGDRVTITCRPSQGINWELAWYQQKPGKAPKLLIYDASSLEQGVPSRFSGSGSGTDFTLTISSLQPEDFATYYCQQFNSYPLTFGGGTKVEIKRTVAAPSVFIFPPSDEQLKSGTASVVCLLNNFYPREAKVQWKVDNALQSGNSQESVTEQDSKDSTYSLSSTLTLSKADYEKHKVYACEVTHQGLSSPVTKSFNRGEC
Kd [10]: 7.68 pM
koff [10]: 3.46e-05 s⁻¹
kon [10]: 4.51e+06 M⁻¹ s⁻¹

B2: XAB4 (antibody, human IgG1, kappa, V domains shown)
VH: EVQLVESGGDLVQPGGSLRLSCAASGFTFSSYWMSWVRQAPGKGLEWVANIKQDGSEKYYVDSVKGRFTISRDNAKNSLYLQMNSLRAEDTAVYYCARDRGSLYYWGQGTLVTVSS
VL: AIQLTQSPSSLSASVGDRVTITCRPSQGINWELAWYQQKPGKAPKLLIYDASSLEQGVPSRFSGSGSGTDFTLTISSLQPEDFATYYCQQFNSYPLTFGGGTKVEIKR
EC50, T = 0 weeks [11]: 48 ng/mL
EC50, T = 4 weeks at pH 8, 40° C. (forced deamidation) [11]: 47 ng/ml
IC50, huIL-6 secretion by BJ cells; rhuIL-17A (1 nM) [12]: 0.63 nM
IC50, huIL-6 secretion by BJ cells; rhuIL-17A/F (300 pM) + rhuTNF-α (6 pM) [13]: 0.17 nM
IC50, huIL-6 secretion by BJ cells; rhuIL-17A/F (3 nM) [13]: 1.68 nM
IC50, huIL-6 secretion by BJ cells; rhuIL-17F (10 nM) + rhuTNF-α (6 pM) [14]: > 3 µM
IC50, huIL-6 secretion by BJ cells; rhuIL-17F (30 nM) [14]: > 3000 nM
IC50, hu-GRO-alpha secretion by BJ cells; IL-17A (30 pM) + TNF-α (6 pM) [15]: 7 pM
IC50, hu-GRO-alpha secretion by BJ cells; IL-17A (1 nM) [15]: 0.35 nM
IC50, hu-GRO-alpha secretion by BJ cells; IL-17A/F (300 pM) + TNF-α (6 pM) [16]: 0.1 nM
IC50, hu-GRO-alpha secretion by BJ cells; IL-17A/F (3 nM) [16]: 1.11 nM
IC50, hu-GRO-alpha secretion by BJ cells; IL-17F (10 nM) + TNF-α (6 pM) [17]: > 3 µM
IC50, hu-GRO-alpha secretion by BJ cells; IL-17F (30 nM) [17]: > 3000 nM
IC50, huIL-6 secretion by BJ cells; rhuIL-17A (0.5 nM) [18]: 0.55 nM
IC50, huGROα secretion by BJ cells; rhuIL-17A (0.5 nM) [19]: 0.44 nM
IC50, mouse KC secretion by CMT-93 cells; mIL-17A (1 nM) [20]: 13.8 nM
IC50, mouse KC secretion by CMT-93 cells; mIL-17A/F (3 nM) [21]: 10.3 nM
IC50, mouse KC secretion by CMT-93 cells; rIL-17A (1 nM) [8]: 6.7 nM
IC50, mouse KC secretion by CMT-93 cells; mIL-17F (30 nM) [9]: > 10 µM
IC50, KC secretion by CMT-93 cells; mIL-17A (0.15 nM) [22]: 7 nM

B3: XAB1 (antibody, human IgG1, kappa, V domains shown)
VH: B2 VH
VL: B2 VL with N30I, W31S, E32A, Q56N
IC50, huIL-6 secretion by BJ cells; rhuIL-17A (30 pM) + rhuTNF-α (6 pM) [12]: 0.47 nM
IC50, huIL-6 secretion by BJ cells; rhuIL-17A/F (300 pM) + rhuTNF-α (6 pM) [13]: 3.83 nM
IC50, huIL-6 secretion by BJ cells; rhuIL-17F (10 nM) + rhuTNF-α (6 pM) [14]: > 3 µM
IC50, hu-GRO-alpha secretion by BJ cells; IL-17A (30 pM) + TNF-α (6 pM) [15]: 0.72 nM
IC50, hu-GRO-alpha secretion by BJ cells; IL-17A/F (300 pM) + TNF-α (6 pM) [16]: 6.22 nM
IC50, hu-GRO-alpha secretion by BJ cells; IL-17F (10 nM) + TNF-α (6 pM) [17]: > 3 µM
IC50, huIL-6 secretion by BJ cells; rhuIL-17A (0.5 nM) [18]: 4.97 nM
IC50, huGROα secretion by BJ cells; rhuIL-17A (0.5 nM) [19]: 1.39 nM
IC50, mouse KC secretion by CMT-93 cells; mIL-17A (1 nM) [20]: 539 nM
IC50, mouse KC secretion by CMT-93 cells; mIL-17A/F (3 nM) [21]: > 1000 nM
IC50, mouse KC secretion by CMT-93 cells; rIL-17A (1 nM) [8]: 467 nM
IC50, mouse KC secretion by CMT-93 cells; mIL-17F (30 nM) [9]: > 10 µM
IC50, KC secretion by CMT-93 cells; mIL-17A (0.15 nM) [22]: 128 nM
O.D. [23]: 0.335 O.D.
